According to publication PMC4511216 (Genes & Development, 2015):
Where two headings read alike, the source gives them in different places. Square brackets hold non-standard residues; d marks the D form. Ends that are not written are not given here. pT = C[C@@H](OP(=O)(O)O)[C@H](N)C(=O)O

B1: human Mob1, full length, unphosphorylated, untagged (natural protein)
chain: MSFLFSSRSSKTFKPKKNIPEGSHQYELLKHAEATLGSGNLRQAVMLPEGEDLNEWIAVNTVDFFNQINMLYGTITEFCTEASCPVMSAGPRYEYHWADGTNIKKPIKCSAPKYIDYLMTWVQDQLDDETLFPSKIGVPFPKNFMSVAKTILKRLFRVYAHIYHQHFDSVMQLQEEAHLNTSFKHFIFFVQEFNLIDRRELAPLQELIEKLGSKDR

Experiments:
[1] = target: PPXY-containing peptide of Lats1
[2] = target: T1, human Mst2 wild type, autophosphorylated (pMst2) (human, UniProt Q13188 9-491); experiment: NMR titration
T1 sequence: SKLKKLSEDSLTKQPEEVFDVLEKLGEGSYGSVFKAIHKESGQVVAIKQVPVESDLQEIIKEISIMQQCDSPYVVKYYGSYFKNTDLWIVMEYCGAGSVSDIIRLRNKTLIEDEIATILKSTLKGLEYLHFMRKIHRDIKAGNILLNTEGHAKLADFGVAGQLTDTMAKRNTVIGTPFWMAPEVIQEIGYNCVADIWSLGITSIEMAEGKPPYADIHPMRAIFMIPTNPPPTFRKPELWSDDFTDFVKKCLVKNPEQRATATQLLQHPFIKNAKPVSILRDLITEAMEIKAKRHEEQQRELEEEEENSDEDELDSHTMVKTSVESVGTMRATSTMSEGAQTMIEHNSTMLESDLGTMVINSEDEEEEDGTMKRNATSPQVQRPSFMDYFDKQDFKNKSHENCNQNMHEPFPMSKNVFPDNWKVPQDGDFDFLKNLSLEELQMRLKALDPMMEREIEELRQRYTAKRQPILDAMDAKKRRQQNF

[3] = target: T2, human Lats1C ΔHM (residue 602–1060) (human, UniProt O95835 602-1060); experiment: SEC
T2 sequence: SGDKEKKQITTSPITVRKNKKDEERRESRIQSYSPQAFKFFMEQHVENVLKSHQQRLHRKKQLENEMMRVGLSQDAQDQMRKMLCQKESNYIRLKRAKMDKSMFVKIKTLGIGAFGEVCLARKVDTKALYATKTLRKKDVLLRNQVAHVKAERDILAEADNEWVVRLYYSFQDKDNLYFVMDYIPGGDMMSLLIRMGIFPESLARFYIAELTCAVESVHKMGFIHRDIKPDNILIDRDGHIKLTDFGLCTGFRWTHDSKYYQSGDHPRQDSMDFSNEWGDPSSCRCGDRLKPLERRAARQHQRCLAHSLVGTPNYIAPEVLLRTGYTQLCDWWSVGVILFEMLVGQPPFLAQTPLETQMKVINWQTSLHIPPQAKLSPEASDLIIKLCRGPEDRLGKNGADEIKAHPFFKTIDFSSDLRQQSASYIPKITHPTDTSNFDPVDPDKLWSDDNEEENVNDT

human Mob1 L207K = human Mob1 L207K (human, UniProt Q9H8S9 1-216, L207K); experiment: pull-down
human Mob1 H164A = human Mob1 H164A (human, UniProt Q9H8S9 1-216, H164A); experiment: pull-down
human Mob1 F167A = human Mob1 F167A (human, UniProt Q9H8S9 1-216, F167A); experiment: pull-down
[4] = target: B1; experiment: ITC
[5] = target: B1; experiment: pull-down
[6] = target: B1; experiment: ITC; remark: listed apart in the source
[7] = target: T3, human pMob1, full length, untagged (phosphorylated by Mst2) (human, UniProt Q9H8S9 1-216, phosphothreonine at 12 and 35); experiment: crystal structure
T3 sequence: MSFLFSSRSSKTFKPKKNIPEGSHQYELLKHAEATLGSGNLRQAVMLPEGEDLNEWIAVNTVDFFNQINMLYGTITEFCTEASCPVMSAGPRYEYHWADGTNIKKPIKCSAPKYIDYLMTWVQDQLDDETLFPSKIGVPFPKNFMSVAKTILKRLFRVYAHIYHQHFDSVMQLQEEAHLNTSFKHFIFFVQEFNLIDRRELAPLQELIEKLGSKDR

human Sav WW domains (domain or fragment)
Kd [1]: 156 µM

B1
binding result [2]: binds
binding result [3]: binds

B2: GST-Mst2 371–427, phosphorylated with Mst2 kinase domain (domain or fragment, human, UniProt Q13188 371-427, looked up)
chain: DEEEEDG[pT]MKRNATSPQVQRPSFMDYFDKQDFKNKSHENCNQNMHEPFPMSKNVFPD
modifications: also: GST fusion
binding result (human Mob1 L207K): binds
binding result (human Mob1 H164A): binds
binding result (human Mob1 F167A): binds

B3: human Mst2 ΔL/MBM (contains only the MBM but lacks all other linker residues) (enzyme)
chain: SKLKKLSEDSLTKQPEEVFDVLEKLGEGSYGSVFKAIHKESGQVVAIKQVPVESDLQEIIKEISIMQQCDSPYVVKYYGSYFKNTDLWIVMEYCGAGSVSDIIRLRNKTLIEDEIATILKSTLKGLEYLHFMRKIHRDIKAGNILLNTEGHAKLADFGVAGQLTDTMAKRNTVIGTPFWMAPEVIQEIGYNCVADIWSLGITSIEMAEGKPPYADIHPMRAIFMIPTNPPPTFRKPELWSDDFTDFVKKCLVKNPEQRATATQLLQHPFIKNAKPVSILRDLITEAMEIKAKRHEEQQRELEEEEDEEEEDGTMKRNATSPQVQRPSFMDYFDKQNWKVPQDGDFDFLKNLSLEELQMRLKALDPMMEREIEELRQRYTAKRQPILDAMDAKKRRQQNF
Kd [4]: 0.23 µM

DEEEEDG[pT]MKRNATSPQVQRPSFMDYFDKQD (domain or fragment, human, UniProt Q13188 371-401, looked up, not fully specified (N-terminus)) [GST-pMst2 MBM (residues 371–401), phosphorylated]
binding result [5]: binds

DGTMKRNATSPQVQRPSFMDYFDKQ (domain or fragment, human, UniProt Q13188 376-400, looked up, not fully specified (N-terminus); also: phosphorylated, sites not given here) [GST-Mst2 linker fragment 376–400, phosphorylated with Mst2 kinase domain]
binding result [5]: binds

DEEEEDG[pT]MKRNATSPQVQRPSFMDYFDKQ [synthetic phospho-T378 Mst2 MBM peptide]
Kd [6]: 0.119 µM

B4: human Lats1 602–704 (Lats1 MBD) (domain or fragment)
chain: SGDKEKKQITTSPITVRKNKKDEERRESRIQSYSPQAFKFFMEQHVENVLKSHQQRLHRKKQLENEMMRVGLSQDAQDQMRKMLCQKESNYIRLKRAKMDKSM
binding result [7]: binds
